Experimental data taken from article PMC7296103, “Live Cell Imaging Demonstrates Multiple Routes Toward a STAT1 Gain-of-Function Phenotype” (Frontiers in Immunology, 2020).

T1: STAT1-GFP wild type, P42224
T1 chain: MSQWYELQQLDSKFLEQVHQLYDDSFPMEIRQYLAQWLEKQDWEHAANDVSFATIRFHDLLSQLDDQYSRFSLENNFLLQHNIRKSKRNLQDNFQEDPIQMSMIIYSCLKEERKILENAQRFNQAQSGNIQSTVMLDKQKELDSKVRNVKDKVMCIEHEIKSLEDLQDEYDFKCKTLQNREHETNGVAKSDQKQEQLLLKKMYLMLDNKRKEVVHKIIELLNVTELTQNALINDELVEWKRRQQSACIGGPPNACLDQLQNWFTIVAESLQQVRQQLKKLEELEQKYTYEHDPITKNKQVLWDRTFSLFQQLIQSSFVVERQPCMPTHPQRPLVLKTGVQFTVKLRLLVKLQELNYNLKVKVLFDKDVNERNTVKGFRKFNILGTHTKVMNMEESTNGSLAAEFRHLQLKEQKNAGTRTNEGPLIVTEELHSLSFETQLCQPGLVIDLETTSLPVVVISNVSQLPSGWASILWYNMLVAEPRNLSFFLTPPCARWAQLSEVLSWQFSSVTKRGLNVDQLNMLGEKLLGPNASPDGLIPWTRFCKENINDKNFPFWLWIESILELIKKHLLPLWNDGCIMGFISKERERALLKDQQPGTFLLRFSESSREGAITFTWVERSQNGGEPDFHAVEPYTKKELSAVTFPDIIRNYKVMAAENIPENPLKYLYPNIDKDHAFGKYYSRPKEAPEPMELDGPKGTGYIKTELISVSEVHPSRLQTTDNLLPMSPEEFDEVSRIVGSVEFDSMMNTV


Columns and labels:
[1] = target: T1, STAT1-GFP wild type, P42224; assay: raster image correlation spectroscopy (RICS), molecular brightness; living U3A cells, unstimulated, 37°C; cytoplasm and nucleus; brightness of STAT1-GFP compared with monomeric GFP; details: remark: other sources report otherwise
[2] = target: T1, STAT1-GFP wild type, P42224; assay: raster image correlation spectroscopy (RICS), molecular brightness; living U3A cells after IFNγ (1 U/μl, 1 h), 37°C; cytoplasm; brightness as fold of cytoplasmic STAT1 WT; details: remark: other sources report otherwise
[3] = target: T1, STAT1-GFP wild type, P42224; assay: raster image correlation spectroscopy (RICS), molecular brightness; living U3A cells after IFNγ (1 U/μl, 1 h), 37°C; nucleus; brightness as fold of cytoplasmic STAT1 WT; dimers to tetramers; details: remark: other sources report otherwise
[4] = target: the molecule itself; assay: as above
[5] = target: the molecule itself; assay: raster image correlation spectroscopy (RICS), molecular brightness; living U3A cells after IFNγ (1 U/μl, 1 h), 37°C; cytoplasm; brightness as fold of cytoplasmic STAT1 WT

Row | Binder | stoichiometry N [4] | increase of nuclear brightness compared to cytoplasmic STAT1 WT [4] | relative brightness (fold of cytoplasmic STAT1 WT) [5] | further results
1 | STAT1-GFP wild type, P42224 1-750 (natural protein) MSQWYELQQLDSKFLEQVHQLYDDSFPMEIRQYLAQWLEKQDWEHAANDVSFATIRFHDLLSQLDDQYSRFSLENNFLLQHNIRKSKRNLQDNFQEDPIQMSMIIYSCLKEERKILENAQRFNQAQSGNIQSTVMLDKQKELDSKVRNVKDKVMCIEHEIKSLEDLQDEYDFKCKTLQNREHETNGVAKSDQKQEQLLLKKMYLMLDNKRKEVVHKIIELLNVTELTQNALINDELVEWKRRQQSACIGGPPNACLDQLQNWFTIVAESLQQVRQQLKKLEELEQKYTYEHDPITKNKQVLWDRTFSLFQQLIQSSFVVERQPCMPTHPQRPLVLKTGVQFTVKLRLLVKLQELNYNLKVKVLFDKDVNERNTVKGFRKFNILGTHTKVMNMEESTNGSLAAEFRHLQLKEQKNAGTRTNEGPLIVTEELHSLSFETQLCQPGLVIDLETTSLPVVVISNVSQLPSGWASILWYNMLVAEPRNLSFFLTPPCARWAQLSEVLSWQFSSVTKRGLNVDQLNMLGEKLLGPNASPDGLIPWTRFCKENINDKNFPFWLWIESILELIKKHLLPLWNDGCIMGFISKERERALLKDQQPGTFLLRFSESSREGAITFTWVERSQNGGEPDFHAVEPYTKKELSAVTFPDIIRNYKVMAAENIPENPLKYLYPNIDKDHAFGKYYSRPKEAPEPMELDGPKGTGYIKTELISVSEVHPSRLQTTDNLLPMSPEEFDEVSRIVGSVEFDSMMNTV |  |  |  | stoichiometry N [1]: 2; relative brightness (fold of cytoplasmic STAT1 WT) [2]: 1 A.U.; relative brightness (fold of cytoplasmic STAT1 WT) [3]: 1.32 A.U.; stoichiometry N [3]: 4
2 | STAT1-GFP E411A (natural protein, UniProt P42224 1-750, looked up, Artificial mutation, not reported in patients; also called STAT1E411A-eGFP; source: measured in living cells; not shown: eGFP, C-terminal, kept) MSQWYELQQLDSKFLEQVHQLYDDSFPMEIRQYLAQWLEKQDWEHAANDVSFATIRFHDLLSQLDDQYSRFSLENNFLLQHNIRKSKRNLQDNFQEDPIQMSMIIYSCLKEERKILENAQRFNQAQSGNIQSTVMLDKQKELDSKVRNVKDKVMCIEHEIKSLEDLQDEYDFKCKTLQNREHETNGVAKSDQKQEQLLLKKMYLMLDNKRKEVVHKIIELLNVTELTQNALINDELVEWKRRQQSACIGGPPNACLDQLQNWFTIVAESLQQVRQQLKKLEELEQKYTYEHDPITKNKQVLWDRTFSLFQQLIQSSFVVERQPCMPTHPQRPLVLKTGVQFTVKLRLLVKLQELNYNLKVKVLFDKDVNERNTVKGFRKFNILGTHTKVMNMEESTNGSLAAEFRHLQLKAQKNAGTRTNEGPLIVTEELHSLSFETQLCQPGLVIDLETTSLPVVVISNVSQLPSGWASILWYNMLVAEPRNLSFFLTPPCARWAQLSEVLSWQFSSVTKRGLNVDQLNMLGEKLLGPNASPDGLIPWTRFCKENINDKNFPFWLWIESILELIKKHLLPLWNDGCIMGFISKERERALLKDQQPGTFLLRFSESSREGAITFTWVERSQNGGEPDFHAVEPYTKKELSAVTFPDIIRNYKVMAAENIPENPLKYLYPNIDKDHAFGKYYSRPKEAPEPMELDGPKGTGYIKTELISVSEVHPSRLQTTDNLLPMSPEEFDEVSRIVGSVEFDSMMNTV | 2 |  |  | 
3 | STAT1-GFP N574I (natural protein, UniProt P42224 1-750, looked up, STAT1 with the patient gain-of-function mutation N574I (linker domain); Mutation reported in patients; also called STAT1N574I-eGFP; N571I (as printed in some places); source: measured in living cells; not shown: eGFP, C-terminal, kept) MSQWYELQQLDSKFLEQVHQLYDDSFPMEIRQYLAQWLEKQDWEHAANDVSFATIRFHDLLSQLDDQYSRFSLENNFLLQHNIRKSKRNLQDNFQEDPIQMSMIIYSCLKEERKILENAQRFNQAQSGNIQSTVMLDKQKELDSKVRNVKDKVMCIEHEIKSLEDLQDEYDFKCKTLQNREHETNGVAKSDQKQEQLLLKKMYLMLDNKRKEVVHKIIELLNVTELTQNALINDELVEWKRRQQSACIGGPPNACLDQLQNWFTIVAESLQQVRQQLKKLEELEQKYTYEHDPITKNKQVLWDRTFSLFQQLIQSSFVVERQPCMPTHPQRPLVLKTGVQFTVKLRLLVKLQELNYNLKVKVLFDKDVNERNTVKGFRKFNILGTHTKVMNMEESTNGSLAAEFRHLQLKEQKNAGTRTNEGPLIVTEELHSLSFETQLCQPGLVIDLETTSLPVVVISNVSQLPSGWASILWYNMLVAEPRNLSFFLTPPCARWAQLSEVLSWQFSSVTKRGLNVDQLNMLGEKLLGPNASPDGLIPWTRFCKENINDKNFPFWLWIESILELIKKHLLPLWIDGCIMGFISKERERALLKDQQPGTFLLRFSESSREGAITFTWVERSQNGGEPDFHAVEPYTKKELSAVTFPDIIRNYKVMAAENIPENPLKYLYPNIDKDHAFGKYYSRPKEAPEPMELDGPKGTGYIKTELISVSEVHPSRLQTTDNLLPMSPEEFDEVSRIVGSVEFDSMMNTV | 4 | 7% | 0.74 A.U. | 
4 | STAT1-GFP R321S (natural protein, UniProt P42224 1-750, looked up, Mutation reported in patients; also called STAT1R321S-eGFP; source: measured in living cells; not shown: eGFP, C-terminal, kept) MSQWYELQQLDSKFLEQVHQLYDDSFPMEIRQYLAQWLEKQDWEHAANDVSFATIRFHDLLSQLDDQYSRFSLENNFLLQHNIRKSKRNLQDNFQEDPIQMSMIIYSCLKEERKILENAQRFNQAQSGNIQSTVMLDKQKELDSKVRNVKDKVMCIEHEIKSLEDLQDEYDFKCKTLQNREHETNGVAKSDQKQEQLLLKKMYLMLDNKRKEVVHKIIELLNVTELTQNALINDELVEWKRRQQSACIGGPPNACLDQLQNWFTIVAESLQQVRQQLKKLEELEQKYTYEHDPITKNKQVLWDRTFSLFQQLIQSSFVVESQPCMPTHPQRPLVLKTGVQFTVKLRLLVKLQELNYNLKVKVLFDKDVNERNTVKGFRKFNILGTHTKVMNMEESTNGSLAAEFRHLQLKEQKNAGTRTNEGPLIVTEELHSLSFETQLCQPGLVIDLETTSLPVVVISNVSQLPSGWASILWYNMLVAEPRNLSFFLTPPCARWAQLSEVLSWQFSSVTKRGLNVDQLNMLGEKLLGPNASPDGLIPWTRFCKENINDKNFPFWLWIESILELIKKHLLPLWNDGCIMGFISKERERALLKDQQPGTFLLRFSESSREGAITFTWVERSQNGGEPDFHAVEPYTKKELSAVTFPDIIRNYKVMAAENIPENPLKYLYPNIDKDHAFGKYYSRPKEAPEPMELDGPKGTGYIKTELISVSEVHPSRLQTTDNLLPMSPEEFDEVSRIVGSVEFDSMMNTV | 4 | 11% | 0.69 A.U. | 
5 | STAT1-GFP Y701A (natural protein, UniProt P42224 1-750, looked up, Non-clinical control; also called STAT1Y701A-eGFP; source: measured in living cells; not shown: eGFP, C-terminal, kept) MSQWYELQQLDSKFLEQVHQLYDDSFPMEIRQYLAQWLEKQDWEHAANDVSFATIRFHDLLSQLDDQYSRFSLENNFLLQHNIRKSKRNLQDNFQEDPIQMSMIIYSCLKEERKILENAQRFNQAQSGNIQSTVMLDKQKELDSKVRNVKDKVMCIEHEIKSLEDLQDEYDFKCKTLQNREHETNGVAKSDQKQEQLLLKKMYLMLDNKRKEVVHKIIELLNVTELTQNALINDELVEWKRRQQSACIGGPPNACLDQLQNWFTIVAESLQQVRQQLKKLEELEQKYTYEHDPITKNKQVLWDRTFSLFQQLIQSSFVVERQPCMPTHPQRPLVLKTGVQFTVKLRLLVKLQELNYNLKVKVLFDKDVNERNTVKGFRKFNILGTHTKVMNMEESTNGSLAAEFRHLQLKEQKNAGTRTNEGPLIVTEELHSLSFETQLCQPGLVIDLETTSLPVVVISNVSQLPSGWASILWYNMLVAEPRNLSFFLTPPCARWAQLSEVLSWQFSSVTKRGLNVDQLNMLGEKLLGPNASPDGLIPWTRFCKENINDKNFPFWLWIESILELIKKHLLPLWNDGCIMGFISKERERALLKDQQPGTFLLRFSESSREGAITFTWVERSQNGGEPDFHAVEPYTKKELSAVTFPDIIRNYKVMAAENIPENPLKYLYPNIDKDHAFGKYYSRPKEAPEPMELDGPKGTGAIKTELISVSEVHPSRLQTTDNLLPMSPEEFDEVSRIVGSVEFDSMMNTV | 2 |  |  | 
6 | STAT1-GFP R274W (natural protein, UniProt P42224 1-750, looked up, STAT1 with the patient gain-of-function mutation R274W (coiled-coil domain); Mutation reported in patients; also called STAT1R274W-eGFP; source: measured in living cells; not shown: eGFP, C-terminal, kept) MSQWYELQQLDSKFLEQVHQLYDDSFPMEIRQYLAQWLEKQDWEHAANDVSFATIRFHDLLSQLDDQYSRFSLENNFLLQHNIRKSKRNLQDNFQEDPIQMSMIIYSCLKEERKILENAQRFNQAQSGNIQSTVMLDKQKELDSKVRNVKDKVMCIEHEIKSLEDLQDEYDFKCKTLQNREHETNGVAKSDQKQEQLLLKKMYLMLDNKRKEVVHKIIELLNVTELTQNALINDELVEWKRRQQSACIGGPPNACLDQLQNWFTIVAESLQQVWQQLKKLEELEQKYTYEHDPITKNKQVLWDRTFSLFQQLIQSSFVVERQPCMPTHPQRPLVLKTGVQFTVKLRLLVKLQELNYNLKVKVLFDKDVNERNTVKGFRKFNILGTHTKVMNMEESTNGSLAAEFRHLQLKEQKNAGTRTNEGPLIVTEELHSLSFETQLCQPGLVIDLETTSLPVVVISNVSQLPSGWASILWYNMLVAEPRNLSFFLTPPCARWAQLSEVLSWQFSSVTKRGLNVDQLNMLGEKLLGPNASPDGLIPWTRFCKENINDKNFPFWLWIESILELIKKHLLPLWNDGCIMGFISKERERALLKDQQPGTFLLRFSESSREGAITFTWVERSQNGGEPDFHAVEPYTKKELSAVTFPDIIRNYKVMAAENIPENPLKYLYPNIDKDHAFGKYYSRPKEAPEPMELDGPKGTGYIKTELISVSEVHPSRLQTTDNLLPMSPEEFDEVSRIVGSVEFDSMMNTV | 4 | 17% |  | 
